Results: patent publication US20150037340A1 (PEIRRE FABRE MEDICAMENT, published 2015)

Assays:
[1] = target: T1, recombinant human Mer-Fc (R and D Systems, cat No 891-MR) (human, UniProt Q12866 26-499, limits assumed); test: ELISA on coated rhMer-Fc, detection with goat anti-mouse IgG-HRP
T1 construct: Bought protein; also called rhMer-Fc; rhMer; not shown: Fc portion
T1 sequence (looked up): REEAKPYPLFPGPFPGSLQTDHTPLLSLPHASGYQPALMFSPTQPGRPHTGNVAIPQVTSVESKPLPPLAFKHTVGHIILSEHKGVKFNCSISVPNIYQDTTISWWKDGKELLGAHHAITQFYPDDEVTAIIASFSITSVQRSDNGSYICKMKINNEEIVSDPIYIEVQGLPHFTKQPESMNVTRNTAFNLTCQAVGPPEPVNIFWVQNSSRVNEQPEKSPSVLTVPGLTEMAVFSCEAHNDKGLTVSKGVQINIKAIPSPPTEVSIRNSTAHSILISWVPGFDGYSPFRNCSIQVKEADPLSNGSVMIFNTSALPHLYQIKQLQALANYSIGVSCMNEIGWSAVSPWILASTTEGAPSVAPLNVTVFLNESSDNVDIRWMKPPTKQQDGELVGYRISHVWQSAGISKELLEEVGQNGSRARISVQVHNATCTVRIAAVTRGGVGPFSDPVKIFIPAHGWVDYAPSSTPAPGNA
Experimental: (§1) Then ½ serial dilutions were done over 12 columns. Plates were washed and a goat anti-mouse (Jackson) specific IgG-HRP was added for 1 h at 37° C. Reaction development was performed using the TMB substrate solution. […] Coating controls were performed in presence of a goat anti-human IgG Fc polyclonal serum labelled with HRP (Jackson, ref 109-035-098) and/or in presence of a HRP-coupled anti-Histidine antibody (R and D Systems, ref: MAB050H). Results are represented in FIGS. 2A, 2B and 2C, respectively.

[2] = target: monkey Axl receptor expressed on the surface of COS7 cells (African green monkey); test: flow cytometry on COS7 cells, goat anti-mouse Alexa 488
[3] = target: T2, recombinant human Axl-Fc (R and D Systems, cat No 154-AL / 154AL/CF) (human, UniProt P30530 26-451); test: competition ELISA: rhAxl-Fc pre-incubated with the antibody, loaded on coated rhGas6 (blocked ligand), bound rhAxl-Fc detected with anti-human IgG-HRP
T2 construct: Bought protein; also called rhAxl-Fc; rh Axl-Fc protein; not shown: human IgG Fc portion (detected with anti-human IgG Fc)
T2 sequence: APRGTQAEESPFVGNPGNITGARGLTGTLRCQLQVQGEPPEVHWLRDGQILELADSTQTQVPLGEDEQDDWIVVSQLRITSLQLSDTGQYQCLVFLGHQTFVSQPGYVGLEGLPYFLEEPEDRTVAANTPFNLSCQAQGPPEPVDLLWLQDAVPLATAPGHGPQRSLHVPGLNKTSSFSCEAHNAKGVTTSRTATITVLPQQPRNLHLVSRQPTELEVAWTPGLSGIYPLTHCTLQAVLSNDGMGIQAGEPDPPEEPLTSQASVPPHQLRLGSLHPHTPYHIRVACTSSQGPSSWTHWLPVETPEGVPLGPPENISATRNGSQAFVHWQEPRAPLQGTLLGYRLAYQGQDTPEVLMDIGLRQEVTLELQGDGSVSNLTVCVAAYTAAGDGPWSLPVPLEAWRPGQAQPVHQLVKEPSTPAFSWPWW
Experimental: To further characterize the 1613F12, Gas6 competition assays were performed. In this assay, the free rhAxl-Fc protein and the 1613F12 are incubated to form antigen-antibody complex and then the complexes are loaded on Gas6-coated surface in the assay plate. The unbound antibody-antigen complexes are washed out before adding enzyme-linked secondary antibody against the human Fc portion of the rhAxl-Fc protein. The substrate is then added and the antigen concentration can be determined by the signal strength elicited by the enzyme-substrate reaction.
Briefly reaction mixture comprising the rhAxl-Fc protein in the presence or not of the anti-Axl Mabs to be tested, are prepared on a separate saturated (0.5% gelatin in PBS 1×) plate. Serial 1: 2 dilutions (starting from 80 μg/ml on 12 columns) of murine anti-Axl antibodies are performed. […] After homogenisation, the competition samples are loaded on Gas6-coated plates with a 6 μg/m rhGas6 solution in PBS (R and D Systems cat No 885-GS-CS/CF). After incubation and several washes, bound rhAxl-Fc proteins are detected using a goat anti-Human IgG-HRP (Jackson, ref. 109-035-098). Once bound, the TMB substrate is added to the plates. The reaction is stopped by addition of 1M H₂SO₄ acid solution and the obtained optical densities read at 450 nm using a microplate reader instrument.

[4] = target: T3, recombinant human Dtk-Fc (R and D Systems, cat No 859-DK) (human, UniProt Q06418 41-428); test: ELISA on coated rhDtk-Fc, detection with goat anti-mouse IgG-HRP
T3 construct: Bought protein; also called rhDtk-Fc; rhDtk; not shown: Fc portion
T3 sequence (looked up): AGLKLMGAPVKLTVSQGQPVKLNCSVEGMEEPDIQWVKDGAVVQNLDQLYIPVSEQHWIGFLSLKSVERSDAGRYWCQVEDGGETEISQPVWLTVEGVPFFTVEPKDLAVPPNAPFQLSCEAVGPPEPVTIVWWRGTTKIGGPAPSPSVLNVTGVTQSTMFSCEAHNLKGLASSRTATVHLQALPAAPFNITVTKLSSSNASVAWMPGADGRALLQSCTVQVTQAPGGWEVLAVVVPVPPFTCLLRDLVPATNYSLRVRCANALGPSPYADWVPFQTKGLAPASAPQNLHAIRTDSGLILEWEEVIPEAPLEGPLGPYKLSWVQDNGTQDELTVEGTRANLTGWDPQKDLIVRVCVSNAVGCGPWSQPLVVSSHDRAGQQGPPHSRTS
Experimental: as §1

B1: 1613F12 antibody (murine form) (antibody, V domains shown)
VH: EVHLQQSGAELVKPGASVKLSCTASGFNIRDTYIHWVKQRPEQGLEWIGRLDPANGHTKYGPNFQGRATMTSDTSSNTAYLQLSSLTSEDTAVYYCARGAYYYGSSGLFYFDYWGQGTTLSVSS
VL: DVQITQSPSYLATSPGETITINCRASKSISKYLAWYQEKPGKTNKLLIYSGSTLQSGVPSRFSGSGSGTDFTLTISSLEPEDFAMYFCQQHHEYPLTFGAGTELELK
notes: Whole murine monoclonal antibody purified from a hybridoma; a murine IgG1 (9G4) serves as its isotype control; also called m1613F12; monoclonal antibody 1613F12 derived from the hybridoma I-4505
Q: Does B1 bind [1]?
A: Result: no binding (tested: log -7.5 M)

Q: And the EC50 (read off the curve) [2]?
A: The EC50 (read off the curve) was 1 nM.

Q: What about the “IC50 (read off the curve)” value [3] of the same binder?
A: The value was ~20 nM.

Q: Does B1 bind [4]?
A: Result: no binding (tested: log -7.5 M)
